The target of experiment [1] is T1, rat RXFP2 (Rattus norvegicus, UniProt F7EMH8). As to the kind of experiment: INSL3-stimulated cAMP assay in HEK293 stably expressing rat RXFP2.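 On all read-outs here: cAMP measured with an HitHunter kit in 384-well plates, 11-point dose–response curves up to 1 µM antibody, four-parameter variable-slope fit.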 The conditions noted are these: INSL3 EC80-stimulated cAMP, stable expression, N = 2; for IC50: read-out: HEK293-rat RXFP2 cAMP IC50.
Method: RXFP activity assays were developed in HEK293 with stable expression of RXFP2 or RXFP1.
The same approach was used to generate stable HEK293 lines expressing human and rat RXFP1 and RXFP2 cDNA. The cAMP assay was conducted using the Eurofin Hithunter kit per manufacturer’s instructions in a 384-well format. All dose curve fitting and EC50 and IC50 determinations were performed in Prism (v9.3.0) using the non-linear fit, variable slope (four parameter) function.
The target in experiment [2] is T1, rat RXFP2. As to the kind of experiment: INSL3-stimulated CYP11B2 mRNA expression in H295R stably expressing rat RXFP2. It counts as cell-based. Also on record: expressed in transfected cells. The following applies: INSL3 EC80 (3.5 nM), 48 h, qPCR; N = 2. The procedure: (§1) RXFP2 antagonists were added to H295R-rRXFP2 before addition of INSL3 EC80 (3.5 nM) for 48 h, whereupon the cells and supernatants were collected. CYP11B1 and CYP11B2 mRNA were determined by qPCR and the RXFP2 blocker potencies were calculated (Fig. 5a). Fifteen antibodies have IC50s < 50 nM, and three of the top antibodies (1F2, 4G6, and 2D4) were selected for evaluation in steroid hormone secretion assays by ELISA.
(§2) Data entered as XY table, with x = [Inhibitor] (nM) and y = CYP11B2 or CYP11B1 fold change.
In general terms: Quantitative PCR measures a nucleic acid by following its amplification.

In experiment [3] the target is T1, rat RXFP2. As to the kind of experiment: INSL3-stimulated CYP11B1 mRNA expression in H295R stably expressing rat RXFP2. The following applies: INSL3 EC80 (3.5 nM), 48 h, qPCR; N = 2. The experiment is classed as cell-based. On the set-up: expressed in transfected cells. Here is the method: as §1, §2

Numbering of substitutions follows the chain as printed.

T1 sequence (F7EMH8 20-737): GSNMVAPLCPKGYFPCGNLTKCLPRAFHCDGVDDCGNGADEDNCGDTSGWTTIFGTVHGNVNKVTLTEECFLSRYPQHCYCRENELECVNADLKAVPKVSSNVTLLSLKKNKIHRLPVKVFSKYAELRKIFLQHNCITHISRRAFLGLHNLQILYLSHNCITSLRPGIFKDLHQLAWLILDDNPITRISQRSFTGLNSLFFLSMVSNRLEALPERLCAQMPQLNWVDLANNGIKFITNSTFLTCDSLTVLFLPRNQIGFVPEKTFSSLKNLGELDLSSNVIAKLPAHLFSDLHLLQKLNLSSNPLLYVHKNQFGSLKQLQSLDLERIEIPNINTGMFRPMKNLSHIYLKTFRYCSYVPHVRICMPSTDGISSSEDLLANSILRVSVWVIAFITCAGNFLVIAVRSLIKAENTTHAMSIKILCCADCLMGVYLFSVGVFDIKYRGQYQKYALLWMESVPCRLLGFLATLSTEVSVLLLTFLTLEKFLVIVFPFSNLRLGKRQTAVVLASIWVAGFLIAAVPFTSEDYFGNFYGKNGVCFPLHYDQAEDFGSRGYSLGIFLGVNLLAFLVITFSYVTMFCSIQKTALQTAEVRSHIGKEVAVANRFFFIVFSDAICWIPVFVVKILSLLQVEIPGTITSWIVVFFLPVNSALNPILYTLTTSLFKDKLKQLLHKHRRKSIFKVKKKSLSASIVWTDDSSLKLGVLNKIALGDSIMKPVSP

B1: 3G4: RXFP2 monoclonal antibody from hybridoma, recombinantly expressed in a rat IgG2b backbone (antibody, V domains shown)
VH: QVQLKESGPGLVAPSQSLSITCTVSGFSLTSYGVSWVRQPPGKGLEWLGVIWGDGSTNYHSALISRLSISKDNSKSQVFLKLNSLQTDDTATYYCAKSLGYYAMDYWGQGTSVTVSS
VL: DIQMTQSPASLSVSVGETVTITCRASENIYSNLVWYQQKQGKSPQLLVYAATNLAEGVPSRFSGSGSGTQYSLKINSLQSEDFGSYYCQHFWGPPWTFGGGTKLEIK
B1: the “HEK293-rat RXFP2 cAMP % Max Response” value in the experiment with rat RXFP2 [1] turned out to be 83.3%. For the same molecule, the results for the IC50 in the experiment with rat RXFP2 [1], with rat RXFP2 [2] and in the experiment with rat RXFP2 [3] were 16.1 nM, 0.2 nM and 0.33 nM, respectively.

B2: 3H1: RXFP2 monoclonal antibody from hybridoma, recombinantly expressed in a rat IgG2b backbone (antibody, V domains shown)
VH: QVQLKETGPGLVAPSQSLSITCTVSGFSLTNYGVNWVRQPPGKGLEWLVVIWSDGSTNYNSALKSRLSISKDNSKSQVFLKMNSLQTDDTAMYYCARQQGYYAMDYWGQGTSVIVSS
VL: B1 VL with V34A, A51V, E56D, W96Y
B2: in the experiment with rat RXFP2 [1], the “HEK293-rat RXFP2 cAMP % Max Response” value amounted to 71.6%. Moreover, the IC50 is 15.8 nM in the experiment with rat RXFP2 [1], 0.16 nM in the experiment with rat RXFP2 [2] and 0.33 nM with rat RXFP2 [3].

B3: 4H5: RXFP2 monoclonal antibody from hybridoma, recombinantly expressed in a rat IgG2b backbone (antibody, V domains shown)
VH: QVQLKQSGPGLVQPSQSLSITCTVSGFSLTNYGVHWVRQSPGKGLEWLGVIWRDGNTDYNAAFMSRLSITKDNSKSQVFFEMNSLQVDDTAIYYCCRGDGYYAMGYWGQGTSVTVSS
VL: B1 VL with V34A, K39R, K42R, E56D, S85N, P94S, W96R
On to B3, for which the “HEK293-rat RXFP2 cAMP % Max Response” value with rat RXFP2 [1] came to 89.2%. For the same molecule, the values for the IC50 with rat RXFP2 [1], with rat RXFP2 [2] and with rat RXFP2 [3] were 14.2 nM, 0.15 nM and 0.21 nM, respectively.

B4: 4H2: RXFP2 monoclonal antibody from hybridoma, recombinantly expressed in a rat IgG2b backbone (antibody, V domains shown)
VH: QVQLRQSGPSLVQPSQSLSITCTVSGFSLTNYGVHWVRQSPGKGLEWLGVIWRGGNTDHNAAFMSRLSITKDNSESQVFFKMNSLQVDDTAIYYCAKAEGYYALDYWGQGTSVTVYS
VL: B1 VL with V34A, A51V, E56D, P94T
With B4, in the experiment with rat RXFP2 [1], the “HEK293-rat RXFP2 cAMP % Max Response” value is reported as 85.7%. The IC50 with rat RXFP2 [1] was determined as 18.9 nM; with rat RXFP2 [2] it was 0.13 nM; in the experiment with rat RXFP2 [3], 0.26 nM.

B5: 4A5: RXFP2 monoclonal antibody from hybridoma, recombinantly expressed in a rat IgG2b backbone (antibody, V domains shown)
VH: DVQLVESGGGLVQPGGSRKLSCAASGFTFSTFGMHWVRQAPEKGLEWVAYISSGSSTIYYADTVKGRFTISRDNPKNTLFLQMTSLRSDDTAMYYCSRSYYGSAHYFDYWGQGTTLTVSS
VL: B1 VL with V34A, A50V, E56D, K74R, S77N, S85N, P94T, W96P
Consider B5, for which, in the experiment with rat RXFP2 [1], the “HEK293-rat RXFP2 cAMP % Max Response” value worked out at 91.0%. The half-inhibitory concentration (IC50) amounted to 23.2 nM with rat RXFP2 [1], 0.31 nM with rat RXFP2 [2] and 2.85 nM in the experiment with rat RXFP2 [3].

The term IC50 denotes the concentration that inhibits the measured activity by half.
